{"source": "paper PMC4770091", "about": "“Structural hot spots for the solubility of globular proteins” (Nature Communications, 2016)", "proteins": {"B1": {"name": "human α-galactosidase (α-Gal A), wild type (enzyme, UniProt P06280 32-429, looked up)", "chain": "LDNGLARTPTMGWLHWERFMCNLDCQEEPDSCISEKLFMEMAELMVSEGWKDAGYEYLCIDDCWMAPQRDSEGRLQADPQRFPHGIRQLANYVHSKGLKLGIYADVGNKTCAGFPGSFGYYDIDAQTFADWGVDLLKFDGCYCDSLENLADGYKHMSLALNRTGRSIVYSCEWPLYMWPFQKPNYTEIRQYCNHWRNFADIDDSWKSIKSILDWTSFNQERIVDVAGPGGWNDPDMLVIGNFGLSWNQQVTQMALWAIMAAPLFMSNDLRHISPQAKALLQDKDVIAINQDPLGKQGYQLRQGDNFEVWERPLSGLAWAVAMINRQEIGGPRSYTIAVASLGKGVACNPACFITQLLPVKRKLGFYEWTSRLRSHINPTGTVLLQLENTMQMSLKDLL", "notes": "human α-galactosidase A, full-length cDNA NM_000169 cloned in pcDNA4/TO/myc-His; The vector pcDNA4/TO/myc-His may also add a His tag after the Myc tag; also called WT α-Gal; Agal; source: HeLa, transiently transfected, in lysate (RIPA buffer); not shown: Myc, C-terminal, kept"}}, "target": "the molecule itself", "test": "SEC; lysate of transfected HeLa cells (RIPA buffer) on Superdex S200 HR10/30 in hypotonic buffer (20 mM HEPES, 10 mM KCl, 1 mM MgCl2, 1 mM EDTA, 1 mM EGTA, 1 mM DTT, pH 7.5); fractions precipitated with trichloroacetic acid and blotted with anti-myc; molecular weight markers as standard"}
{"protein": "B1", "values": [{"measurement": "stoichiometry N", "result": 2}]}
